# T1: SNF1 (UniProt P06782 1-633, limits assumed)
# T1 sequence (looked up): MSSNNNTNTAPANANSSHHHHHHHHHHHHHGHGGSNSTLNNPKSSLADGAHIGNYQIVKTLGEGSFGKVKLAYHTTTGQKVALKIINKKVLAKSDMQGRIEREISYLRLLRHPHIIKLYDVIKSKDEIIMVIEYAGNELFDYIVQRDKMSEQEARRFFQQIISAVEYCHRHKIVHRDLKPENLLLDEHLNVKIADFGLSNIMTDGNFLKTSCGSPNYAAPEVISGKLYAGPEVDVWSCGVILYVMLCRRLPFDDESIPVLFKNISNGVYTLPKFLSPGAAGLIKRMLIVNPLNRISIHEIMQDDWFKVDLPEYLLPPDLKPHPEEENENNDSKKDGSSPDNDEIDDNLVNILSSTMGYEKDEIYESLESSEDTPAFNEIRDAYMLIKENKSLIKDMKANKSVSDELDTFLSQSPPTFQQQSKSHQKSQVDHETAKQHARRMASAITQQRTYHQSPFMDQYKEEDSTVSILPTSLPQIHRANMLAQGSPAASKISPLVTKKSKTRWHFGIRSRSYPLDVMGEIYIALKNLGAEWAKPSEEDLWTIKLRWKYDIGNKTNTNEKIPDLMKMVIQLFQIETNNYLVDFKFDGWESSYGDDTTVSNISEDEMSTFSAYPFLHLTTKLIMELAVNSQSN
# T2: Mouse Fas-IC 197-306 (mouse, UniProt P25446 218-327)
# T2 construct: range 197-306
# T2 sequence (looked up): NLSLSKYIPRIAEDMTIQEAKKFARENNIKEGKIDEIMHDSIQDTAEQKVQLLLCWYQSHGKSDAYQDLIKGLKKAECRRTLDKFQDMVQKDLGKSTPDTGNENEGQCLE
# T3: Mouse Fas-IC, full (mouse, UniProt P25446 187-327)
# T3 construct: domain: FAS-IC (intracellular domain); also called mFAS-IC
# T3 sequence (looked up): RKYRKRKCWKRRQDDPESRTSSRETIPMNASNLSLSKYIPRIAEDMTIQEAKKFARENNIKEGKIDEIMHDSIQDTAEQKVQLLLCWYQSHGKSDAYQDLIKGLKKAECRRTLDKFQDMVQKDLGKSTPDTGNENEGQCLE
# T4: GST-mFAS-IC I225A (GST fusion with FAS-IC containing an Ile to Ala replacement at position 225) (mouse, UniProt P25446 187-327)
# T4 construct: also called GST-FAS-IC with a replacement at the lpr^cg mutation site; not shown: Glutathione S-transferase (GST)
# T4 sequence (looked up): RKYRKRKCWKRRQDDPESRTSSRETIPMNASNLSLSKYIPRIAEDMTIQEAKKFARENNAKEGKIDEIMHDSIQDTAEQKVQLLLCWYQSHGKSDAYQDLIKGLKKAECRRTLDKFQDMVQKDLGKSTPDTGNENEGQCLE
# B1: SNF4 (other, UniProt P12904 1-322, looked up)
# chain: MKPTQDSQEKVSIEQQLAVESIRKFLNSKTSYDVLPVSYRLIVLDTSLLVKKSLNVLLQNSIVSAPLWDSKTSRFAGLLTTTDFINVIQYYFSNPDKFELVDKLQLDGLKDIERALGVDQLDTASIHPSRPLFEACLKMLESRSGRIPLIDQDEETHREIVVSVLTQYRILKFVALNCRETHFLKIPIGDLNIITQDNMKSCQMTTPVIDVIQMLTQGRVSSVPIIDENGYLINVYEAYDVLGLIKGGIYNDLSLSVGEALMRRSDDFEGVYTCTKNDKLSTIMDNIRKARVHRFFVVDDVGRLVGVLTLSDILKYILLGSN
# B2: MORT-1 (full) (other)
# chain: VNQAPECRFGGGILGPLGKRRDLARASEPRTEGARRAGPQPRPLADPAMDPFLVLLHSVSSSLSSSELTELKFLCLGRVVKRKLERVQSGLDLFSMLLEQNDLEPGHTELLRELLASLRRHDLLRRVDDFEAGAAAGAAPGEEDLCAAFNVICDNVGKDWRRLARQLKVSDTKIDSIEDRYPRNLTERVRESLRIWKNTEKENATVAHLVGALRSCQMNLVADLVQEVQQARDLQNRSGAMSPMSWNSDASTSEAS
# notes: The Gal4 part is not written as a piece; Met 49 is a possible translation start; also called HF1; HF-1
# B3: FLAG-MORT1 fusion protein (MORT-1 N-linked to the FLAG octapeptide) (other)
# chain: VNQAPECRFGGGILGPLGKRRDLARASEPRTEGARRAGPQPRPLADPAMDPFLVLLHSVSSSLSSSELTELKFLCLGRVVKRKLERVQSGLDLFSMLLEQNDLEPGHTELLRELLASLRRHDLLRRVDDFEAGAAAGAAPGEEDLCAAFNVICDNVGKDWRRLARQLKVSDTKIDSIEDRYPRNLTERVRESLRIWKNTEKENATVAHLVGALRSCQMNLVADLVQEVQQARDLQNRSGAMSPMSWNSDASTSEAS
# modifications: metabolically labeled with [35S]methionine (and [35S]cysteine for the co-immunoprecipitations)
# notes: also called FLAG-HF1; HF1-FLAG; not shown: FLAG octapeptide (Eastman Kodak)
# Tests used:
# [1] = target: T1, SNF1; assay: yeast two-hybrid beta-galactosidase filter assay (SFY526); row = Gal4 DNA-binding-domain hybrid, column = activation-domain hybrid; + = strong color within 90 min; positive control
# [2] = target: T2, Mouse Fas-IC 197-306; assay: yeast two-hybrid beta-galactosidase filter assay (SFY526); row = Gal4 DNA-binding-domain hybrid, column = activation-domain hybrid; ++ = strong color within 30 min
# [3] = target: T3, Mouse Fas-IC, full; assay: as above
# [4] = target: the molecule itself; assay: as above
# [5] = target: T4, GST-mFAS-IC I225A (GST fusion with …); assay: GST pull-down: 35S-labeled FLAG-HF1 from HeLa extracts on GST fusion bound to glutathione beads, SDS-PAGE and autoradiography
# Text: The [³⁵S] labeled proteins of the HeLa cells including the labeled FLAG-MORT1 fusion protein having been first extracted were subjected to interaction with the various GST and GST-FAS-IC proteins (bound to glutathione beads) and then to SDS-PAGE. As controls in all of the interaction experiments, extracts of HeLa cells transfected with luciferase were subjected to interactions with the GST and GST-FAS-IC fusion proteins and SDS-PAGE. FIGS. 1A and B are also described in Example 1.
# Expression of HF1 (MORT-1) molecules fused at their N terminus with the FLAG octapeptide (FLAG-HF1) yielded in HeLa cells proteins of four distinct sizes—about 27, 28, 32, and 34 kD. […] Thus the in vitro interaction was evaluated by assessing, by autoradiography following SDS-PAGE, the binding of [³⁵S] metabolically labeled HF1, produced in transfected HeLa cells as a fusion with the FLAG octapeptide (FLAG-HF1), to GST, GST fusion with the human or mouse FAS-IC (GST-huFAS-IC, GST-mFAS-IC) or to GST fusion with FAS-IC containing an Ile to Ala replacement mutation at position 225.
binder,measurement,setting,value
B1,binding result,[1],binds
B2,binding result,[2],binds
same,binding result,[3],binds
same,binding result,[4],binds
B3,binding result,[5],no binding

# Reference: US20020058798A1 (YEDA RESEARCH AND DEVELOPMENT, published 2002)
